Several values for one entry are separate records, joined by “and”; a condition that tells them apart may be missing. Identical values can stand only once.
B1: N-terminal His-tagged L-arabinose isomerase (L-AI) from Enterococcus faecium DBFIQ E36 (enzyme, UniProt Q3Y1E5 1-474, looked up)
chain: MLNIGEKEFWFVVGSQHLYGEEALREVKKHAQEMVDELNENGQLPYPIRLQELAVTADTITKIMKEVNYREEVAGVITWMHTFSPAKMWIRGTKLLQKPLLHLATQYNESIPWKTIDMDFMNLNQSAHGDREYGFINARLNKQNKIVVGYWKRPEIQKEIADWMDVAVAYNESFGIKVARFGDNMRNVGVTEGDKVEAQIQFGWTVDYFGIGDLVQVIDRVSDEEVDQLFEEYKELYTFDYGDYEEKTWEEHVKVQAQQEIGIRRFLEEGGYNAFTTNFEDLYGMKQLPGLAVQRLMAEGYGFAGEGDWKTAAIDRLLKIMARGKDTGFMEDYTYELASGQEAILESHMMEVDPTLAATKPRIVVSPLSMGDREDPARLVFDGKAGEGVVVSMADFGTHYKLLINEVEAFEPTTEAPNLPVARVLWKTKPNFHEGVHSWIQAGGGHHTVVSLNLTTDQIETWAKLVELETVVIR
notes: codon-optimised synthetic gene; the construct has 481 aa including the initial methionine (MW 55,036); also called N-His-L-AI; recombinant L-AI; not shown: His6, N-terminal, kept
B2: C-terminal His-tagged L-arabinose isomerase (L-AI) from Enterococcus faecium DBFIQ E36 (enzyme, UniProt Q3Y1E5 1-474, looked up)
chain: MLNIGEKEFWFVVGSQHLYGEEALREVKKHAQEMVDELNENGQLPYPIRLQELAVTADTITKIMKEVNYREEVAGVITWMHTFSPAKMWIRGTKLLQKPLLHLATQYNESIPWKTIDMDFMNLNQSAHGDREYGFINARLNKQNKIVVGYWKRPEIQKEIADWMDVAVAYNESFGIKVARFGDNMRNVGVTEGDKVEAQIQFGWTVDYFGIGDLVQVIDRVSDEEVDQLFEEYKELYTFDYGDYEEKTWEEHVKVQAQQEIGIRRFLEEGGYNAFTTNFEDLYGMKQLPGLAVQRLMAEGYGFAGEGDWKTAAIDRLLKIMARGKDTGFMEDYTYELASGQEAILESHMMEVDPTLAATKPRIVVSPLSMGDREDPARLVFDGKAGEGVVVSMADFGTHYKLLINEVEAFEPTTEAPNLPVARVLWKTKPNFHEGVHSWIQAGGGHHTVVSLNLTTDQIETWAKLVELETVVIR
notes: codon-optimised synthetic gene; the construct has 482 aa including the initial methionine (MW 55,221); also called C-His-L-AI; recombinant L-AI; not shown: His6, C-terminal, kept

Biological target: the molecule itself
Experiment: AUC; sedimentation velocity, 20 °C, 50 mM sodium phosphate buffer pH 7.0, absorbance at 285 nm, c(s) by SEDFIT; distributions shown for 0.43 g L^-1 N-His-L-AI and 0.3 g L^-1 C-His-L-AI; self-association, monomer to oligomers

Protein	stoichiometry N
B1	4 and 6
B2	3 and 6

Source: paper PMC6149694, “Engineering the L-Arabinose Isomerase from Enterococcus Faecium for D-Tagatose Synthesis” (Molecules : A Journal of Synthetic Chemistry and Natural …, 2017)
